In US11155602B2, “Polypeptides targeting HIV fusion” (priority 2015, dated 2021):
Where a chain is given by its changes, count along the chain named.

B1: 422 (protein)
chain: MGHHHHHHGVSDVPRDLEVVAATPTSLLISWKYKVHPYRYYRITYGETGGNSPVQEFTVPSVLSTATISGLKPGVDYTITVYAVTYGVNSLPISINYRTEIDGGGGSGGGGSGGGGSGGGGTEYEARIEALIRAAQEQQEKNEAALRELDK
modifications: Anti-N17 Adnectin - HIV fusion peptide inhibitor Combinectin
B2: 424 (protein)
chain: MGHHHHHHGGSVSDVPRDLEVVAATPTSLLISWEYKVNAYRYYRITYGETGGNSPVQEFTVPSVLSTATISGLKPGVDYTITVYAVTYGVDSDPISINYRTEIDGGGGSGGGGSGGGGSGGGGARIEEYAARIEALIRAAQEQQEKNEAALRELYKWAS
modifications: Anti-N17 Adnectin - HIV fusion peptide inhibitor Combinectin
B3: 412 (protein)
chain: MGHHHHHHGGSVSDVPRDLEVVAATPTSLLISWEYKVNAYRYYRITYGETGGNSPVQEFTVPSVLSTATISGLKPGVDYTITVYAVTYGVDSDPISINYRTEIDGGGGSGGGGSGGGGSGGGGSEYEARIEALIRAAQEQQEKNEAALRELYKWAS
modifications: Anti-N17 Adnectin - HIV fusion peptide inhibitor Combinectin
B4: 426 (protein)
chain: B3 chain
modifications: Anti-N17 Adnectin - HIV fusion peptide inhibitor Combinectin
B5: 415 (protein)
chain: MGHHHHHHGVSDVPRDLEVVAATPTSLLISWDAPAVTVRYYRITYGETGGNSPVQEFTVPGSKSTATISGLKPGVDYTITVYAVTGRGESPASSKPISINYRTEIDGGGGSGGGGSGGGGSGGGGSRIEALIRAAQEQQEKNEAALRELFKWAS
modifications: Anti-N17 Adnectin - HIV fusion peptide inhibitor Combinectin
B6: 419 (protein)
chain: B5 chain with F150Q
modifications: Anti-N17 Adnectin - HIV fusion peptide inhibitor Combinectin
B7: 416 (protein)
chain: B5 chain with E140Q, F150D
modifications: Anti-N17 Adnectin - HIV fusion peptide inhibitor Combinectin
B8: 418 (protein)
chain: B5 chain with F150L
modifications: Anti-N17 Adnectin - HIV fusion peptide inhibitor Combinectin
B9: 423 (protein)
chain: B5 chain with F150Y, A153T
modifications: Anti-N17 Adnectin - HIV fusion peptide inhibitor Combinectin
B10: 417 (protein)
chain: B5 chain with F150Y
modifications: Anti-N17 Adnectin - HIV fusion peptide inhibitor Combinectin
B11: 411 (protein)
chain: MGHHHHHHGGSVSDVPRDLEVVAATPTSLLISWEYKVNAYRYYRITYGETGGNSPVQEFTVPSVLSTATISGLKPGVDYTITVYAVTYGVDSDPISINYRTEIDGGGGSGGGGSGGGGSGGGGTIAEYAARIEALIRAAQEQQEKNEAALRELYKWAS
modifications: Anti-N17 Adnectin - HIV fusion peptide inhibitor Combinectin
B12: 425 (protein)
chain: B11 chain
modifications: Anti-N17 Adnectin - HIV fusion peptide inhibitor Combinectin
B13: 413 (protein)
chain: MGHHHHHHGVSDVPRDLEVVAATPTSLLISWKYKVHPYRYYRITYGETGGNSPVQEFTVPSVLSTATISGLKPGVDYTITVYAVTYGVNSLPISINYRTEIDGGGGSGGGGSGGGGSGGGGTEYEARIEALIRAAQEQQEKNEAALRELKEWASIWN
modifications: Anti-N17 Adnectin - HIV fusion peptide inhibitor Combinectin
B14: 427 (protein)
chain: B13 chain
modifications: Anti-N17 Adnectin - HIV fusion peptide inhibitor Combinectin
B15: 420 (protein)
chain: MGHHHHHHGGSVSDVPRDLEVVAATPTSLLISWEYKVHPYRYYRITYGETGGNSPVQEFTVPSVLSTATISGLKPGVDYTITVYAVTYGDDSAPISINYRTEIDGGGGSGGGGSGGGGSGGGGSRIEALIRAAQEQQEKNEAALRELDKWAS
modifications: Anti-N17 Adnectin - HIV fusion peptide inhibitor Combinectin
B16: 421 (protein)
chain: MGHHHHHHGVSDVPRDLEVVAATPTSLLISWVAGAEDYQYYRITYGETGGNSPVQEFTVPHDLVTATISGLKPGVDYTITVYAVTDMMHVEYTEHPISINYRTEIDGGGGSGGGGSGGGGSGGAIAEYAARIEALIRAAQEQQEKNEAALRELDKWAS
modifications: Anti-N17 Adnectin - HIV fusion peptide inhibitor Combinectin
B17: 428 (protein)
chain: MGHHHHHHTSGVSDVPRDLEVVAATPTSLLISWDAPAVTVGWYHIGYNVEGEPASYQYFRVPGSKSTATISGLKPGVEYMIFVNAVTGSGAREEFSLPISINYRTEIDGGGGSGGGGSGGGGSGGGGSEYEARIEALIRAAQEQQEKNEAALRELDKWTGVWGNYEKV
modifications: Anti-N17 Adnectin - HIV fusion peptide inhibitor Combinectin
B18: 414 (protein)
chain: B17 chain
modifications: Anti-N17 Adnectin - HIV fusion peptide inhibitor Combinectin
B19: 361 (protein)
chain: MGHHHHHHGGSVSDVPRDLEVVAATPTSLLISWEYKVYHGRYYRITYGETGGNSPVQEFTVPSVLSTATISGLKPGVDYTITVYAVTYGDDSAPISINYRTEID
modifications: Adnectin
B20: 362 (protein)
chain: B19 chain with Y38H, H39P, G40Y, T69K, I70L
modifications: Adnectin
B21: 363 (protein)
chain: B19 chain with Y38H, H39P, G40Y, D90N
modifications: Adnectin

Test system: NL-Rluc virus
Test: Combinectin potency assay: antiviral EC50, NL-Rluc virus in MT-2 cells, luciferase readout
Assay type: cell-based, HIV-1
Conditions: Anti-N17 Adnectin - HIV fusion peptide inhibitor Combinectin, Table 4
Method in brief: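 Peptides, serially diluted threefold over 11 points in triplicate, were exposed for 4–5 days to MT-2 cells preinfected 1 h with NL-Rluc virus (MOI 0.01). Replication read out as Renilla luciferase signal, with EC50 derived against untreated infected controls.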

Going from B1 to B2, the EC50 rises from 3 nM to 39 nM (13-fold). The first is the more potent here.

Going from B3 to B4, the EC50 falls from 2980 nM to 139 nM (21-fold). The second is the more potent here.

B5 and B6 cannot be ordered by EC50: greater than 1000 nM for the first, greater than 1000 nM for the second.

Compared with B7, B8 is lower in EC50: greater than 1000 nM for the first, 218 nM for the second. The second is the more potent here.

First: B9
Second: B10
The EC50 of the first is 3.5-fold lower: 122 nM for the first, 428 nM for the second. The first is the more potent here.

Going from B11 to B12, the EC50 falls from 4340 nM to 523 nM (8.3-fold). The second is the more potent here.

Going from B13 to B14, the EC50 rises from 6 nM to 143 nM (24-fold). The first is the more potent here.

First: B15
Second: B16
The EC50 of the first is 6.2-fold lower: 8 nM for the first, 50 nM for the second.

Compared with B17, B18 is 12-fold lower in EC50: 50 nM for the first, 4 nM for the second.

Same assay, conditions: Anti-N17 Adnectin, Table 3

Compared with B19, B20 is lower in EC50: greater than 1000 nM for the first, 121 nM for the second.

With B21 the EC50 was 130 nM.
